± gives the standard deviation of the averaged measurements.
What was measured:
Saccharomyces cerevisiae [1] = experiment: protein stability index of tFT-peptide fusion (C-terminal peptide) (PSI (0-1 scale)); higher = more stable (slower turnover)
Procedure: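 MPS profiling in S. cerevisiae of the tFT-X12 degron library: putative degron peptides plus stable controls, 12 aa, fused to the C-terminus of a sfGFP-mCherry timer. Cells are FACS-sorted into 8 mCherry/sfGFP bins and deep-sequenced. PSI runs from 0 (unstable) to 1 (stable). Backgrounds are wild type, das1Δ and doa10Δ at 30 °C, and wild type, das1Δ, cdc34-1 and cdc53-1 at 37 °C; 2-3 technical replicates each.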

Saccharomyces cerevisiae [2] = experiment: as above; settings: genetic background: wild type; temperature: 30 C
[3] = genetic background: cdc34-1, temperature: 37 C
[4] = genetic background: cdc53-1, temperature: 37 C
[5] = genetic background: das1 deletion, temperature: 30 C
[6] = genetic background: das1 deletion, temperature: 37 C
[7] = genetic background: doa10 deletion, temperature: 30 C
[8] = genetic background: wild type, temperature: 30 C
[9] = genetic background: wild type, temperature: 37 C
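Also: PSI is a weighted mean of sequencing reads over stability bins, variants kept only with over 10 reads, mCherry proximal and sfGFP distal, peptide attached via GGGS linker.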

Sequence | protein stability index (Saccharomyces cerevisiae [1]; [3]) | protein stability index (Saccharomyces cerevisiae [1]; [4]) | protein stability index (Saccharomyces cerevisiae [1]; [5]) | protein stability index (Saccharomyces cerevisiae [1]; [6]) | protein stability index (Saccharomyces cerevisiae [1]; [7]) | protein stability index (Saccharomyces cerevisiae [1]; [8]) | protein stability index (Saccharomyces cerevisiae [1]; [9]) | protein stability index (Saccharomyces cerevisiae [2])
EWGLGEIVVKVA | 0.563 ± 0.025 | 0.654 ± 0.013 | 0.534 ± 0.011 | 0.684 ± 0.015 | 0.138 ± 0.0032 | 0.162 ± 0.013 | 0.2153 ± 0.0017 | 0.259 ± 0.057
FAFPTPPPLLFD | 0.68 ± 0.047 | 0.7511 ± 0.00095 | 0.693 ± 0.035 | 0.735 ± 0.0083 | 0.667 ± 0.0073 | 0.676 ± 0.0095 | 0.736 ± 0.013 | 0.751 ± 0.027
FCGWLGVYLVKG | 0.5909 ± 0.001 | 0.6581 ± 0.00083 | 0.484 ± 0.026 | 0.656 ± 0.0023 | 0.481 ± 0.035 | 0.49 ± 0.015 | 0.668 ± 0.062 | 0.494 ± 0.076
FCSFSWFLFLRS | 0.211 ± 0.0051 | 0.123 ± 0.023 | 0.329 ± 0.02 | 0.359 ± 0.0085 | 0.599 ± 0.01 | 0.337 ± 0.016 | 0.312 ± 0.022 | 0.405 ± 0.034
FCVLLFCAVSDL | 0.289 ± 0.032 | 0.383 ± 0.03 | 0.239 ± 0.036 | 0.4433 ± 0.0013 | 0.212 ± 0.0092 | 0.24 ± 0.036 | 0.398 ± 0.0074 | 0.317 ± 0.03
FCVVFFLSLVFL | 0.457 ± 0.01 | 0.491 ± 0.03 | 0.391 ± 0.027 | 0.511 ± 0.013 | 0.4225 ± 0.0026 | 0.386 ± 0.0062 | 0.49 ± 0.0029 | 0.495 ± 0.046
FFDLSLYSLCLC | 0.623 ± 0.019 | 0.69 ± 0.059 | 0.466 ± 0.013 | 0.6476 ± 0.0029 | 0.229 ± 0.009 | 0.271 ± 0.029 | 0.4649 ± 0.0011 | 0.378 ± 0.064
FFFFPVYFIFVV | 0.272 ± 0.014 | 0.288 ± 0.05 | 0.259 ± 0.02 | 0.409 ± 0.013 | 0.259 ± 0.01 | 0.232 ± 0.016 | 0.32 ± 0.0059 | 0.311 ± 0.0065
FFFFSMFSFFIP | 0.503 ± 0.056 | 0.576 ± 0.0068 | 0.485 ± 0.017 | 0.564 ± 0.013 | 0.438 ± 0.013 | 0.466 ± 0.031 | 0.531 ± 0.0034 | 0.477 ± 0.054
FFFVLVSGWWGV | 0.181 ± 0.0054 | 0.344 ± 0.059 | 0.237 ± 0.027 | 0.472 ± 0.044 | 0.205 ± 0.022 | 0.221 ± 0.021 | 0.374 ± 0.013 | 0.36 ± 0.041
FFLDRLVIRLIA | 0.1487 ± 0.00028 | 0.173 ± 0.0047 | 0.248 ± 0.029 | 0.383 ± 0.0071 | 0.0576 ± 0.024 | 0.0715 ± 0.011 | 0.0735 ± 0.014 | 0.105 ± 0.052
FFLFFLSFGCFL | 0.489 ± 0.078 | 0.533 ± 0.031 | 0.421 ± 0.029 | 0.5391 ± 0.0019 | 0.4551 ± 0.0028 | 0.459 ± 0.032 | 0.505 ± 0.016 | 0.529 ± 0.048
FFLKPVPSLFLC | 0.388 ± 0.015 | 0.5971 ± 0.005 | 0.519 ± 0.021 | 0.6657 ± 0.0034 | 0.0796 ± 0.014 | 0.0677 ± 0.0064 | 0.0767 ± 0.016 | 0.14 ± 0.014
FFLVLWSSLLSP | 0.457 ± 0.025 | 0.5545 ± 0.00086 | 0.378 ± 0.035 | 0.572 ± 0.006 | 0.3584 ± 0.0021 | 0.386 ± 0.033 | 0.5441 ± 0.0011 | 0.454 ± 0.036
FFRPWRLVGCLV | 0.263 ± 0.0038 | 0.312 ± 0.011 | 0.265 ± 0.024 | 0.3692 ± 0.0036 | 0.189 ± 0.017 | 0.215 ± 0.018 | 0.266 ± 0.02 | 0.331 ± 0.065

Source: the supplement of paper PMC10724198
